Where no end group is shown, it is not given here.

The nature of one series: First-order nonenzymatic deamidation of pentapeptides in Tris buffer. It is filed as physicochemical. The conditions noted are these: pH 7.4, 37.0° C., 0.15 M Tris HCl; Asn pentapeptides. The method in brief: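 Pentapeptides containing Asn or Gln in varied flanking sequences incubated at 37° C., pH 7.4, 0.15 M Tris buffer; first-order deamidation rates measured. Some Asn values estimated from remaining data; many Gln values derived from surface fitting rather than measured.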
Turning to “GlyAlaAsnLysGly (GANKG; printed: GlyAlaAsnLysGly)”, the “First-Order Deamidation Halftimes of GlyXxxAsnYyyGly” value turned out to be 55.9 days.
On the same count and under the same terms, with “GlyValAsnGluGly (GVNEG; printed: GlyValAsnGluGly)” the figure was 64.8 days.
Same read-out and setting: the value for “GlyCysAsnValGly (GCNVG; printed: GlyCysAsnValGly)” was 229 days; that for “GlySerAsnProGly (GSNPG; printed: GlySerAsnProGly)” was 7060 days; that for “GlyAspAsnGluGly (GDNEG; printed: GlyAspAsnGluGly)” was 46.8 days.
Still for that read-out and setting: with “GlyTrpAsnCysGly (GWNCG; printed: GlyTrpAsnCysGly)” the figure was 83.1 days; with “GlyPheAsnLysGly (GFNKG; printed: GlyPheAsnLysGly)”, 58.2 days; with “GlyTyrAsnProGly (GYNPG; printed: GlyTyrAsnProGly)”, 9830 days.
As for “GlySerAsnIleGly (GSNIG; printed: GlySerAsnIleGly)”, the “First-Order Deamidation Halftimes of GlyXxxAsnYyyGly” value is recorded as 285 days.
On the same count and under the same terms, with “GlyAspAsnAspGly (GDNDG; printed: GlyAspAsnAspGly)” the figure was 29.4 days; with “GlyCysAsnGlyGly (GCNGG; printed: GlyCysAsnGlyGly)”, 1.14 days.
On the same count and under the same terms, with “GlyMetAsnMetGly (GMNMG; printed: GlyMetAsnMetGly)” the figure was 56.9 days; with “GlyHisAsnSerGly (GHNSG; printed: GlyHisAsnSerGly)”, 15.7 days.
The same measure, in the same setting: the value for “GlyAspAsnIleGly (GDNIG; printed: GlyAspAsnIleGly)” was 298 days; that for “GlyThrAsnHisGly (GTNHG; printed: GlyThrAsnHisGly)” was 9.6 days; that for “GlySerAsnThrGly (GSNTG; printed: GlySerAsnThrGly)” was 45.7 days.
As for “GlyValAsnAspGly (GVNDG; printed: GlyValAsnAspGly)”, the “First-Order Deamidation Halftimes of GlyXxxAsnYyyGly” value amounted to 33.5 days.
Still for that read-out and setting: the value for “GlyAlaAsnTrpGly (GANWG; printed: GlyAlaAsnTrpGly)” was 130 days; that for “GlyAmCysAsnMetGly (CNMG; not fully specified (N-terminus); printed as GlyAmCysAsnMetGly)” was 56.5 days.
Still for that read-out and setting: the value for “GlyIleAsnHisGly (GINHG; printed: GlyIleAsnHisGly)” was 11.5 days.
The same measure, in the same setting: the value for “GlyLeuAsnProGly (GLNPG; printed: GlyLeuAsnProGly)” was 10500 days; that for “GlyMetAsnPheGly (GMNFG; printed: GlyMetAsnPheGly)” was 61.9 days; that for “GlyArgAsnCysGly (GRNCG; printed: GlyArgAsnCysGly)” was 50.5 days.
In the case of “GlyThrAsnTyrGly (GTNYG; printed: GlyThrAsnTyrGly)”, the “First-Order Deamidation Halftimes of GlyXxxAsnYyyGly” value is recorded as 80.6 days.
The same measure, in the same setting: the value for “GlyHisAsnLeuGly (GHNLG; printed: GlyHisAsnLeuGly)” was 116 days.
On the same count and under the same terms, the value for “GlySerAsnAlaGly (GSNAG; printed: GlySerAsnAlaGly)” was 24.1 days; that for “GlyAlaAsnIleGly (GANIG; printed: GlyAlaAsnIleGly)” was 300 days.
Same read-out and setting: with GlyLeuAsnAmCysGly the figure was 33.6 days.
On to “GlyIleAsnProGly (GINPG; printed: GlyIleAsnProGly)”, for which the “First-Order Deamidation Halftimes of GlyXxxAsnYyyGly” value was 11600 days.
“GlyLeuAsnCysGly (GLNCG; printed: GlyLeuAsnCysGly)”: the “First-Order Deamidation Halftimes of GlyXxxAsnYyyGly” value is on record as 53.5 days.
The same measure, in the same setting: with “GlyLeuAsnGluGly (GLNEG; printed: GlyLeuAsnGluGly)” the figure was 56.7 days; with “GlyThrAsnMetGly (GTNMG; printed: GlyThrAsnMetGly)”, 47.6 days.
The same measure, in the same setting: the value for “GlySerAsnHisGly (GSNHG; printed: GlySerAsnHisGly)” was 9.0 days; that for “GlyTrpAsnAspGly (GWNDG; printed: GlyTrpAsnAspGly)” was 43.6 days.
On to “GlyIleAsnValGly (GINVG; printed: GlyIleAsnValGly)”, for which the “First-Order Deamidation Halftimes of GlyXxxAsnYyyGly” value worked out at 295 days.
On the same count and under the same terms, with “GlyGluAsnAlaGly (GENAG; printed: GlyGluAsnAlaGly)” the figure was 25.8 days; with “GlyTyrAsnSerGly (GYNSG; printed: GlyTyrAsnSerGly)”, 11.9 days.
In the case of “GlyAlaAsnThrGly (GANTG; printed: GlyAlaAsnThrGly)”, the “First-Order Deamidation Halftimes of GlyXxxAsnYyyGly” value is 43.5 days.
On the same count and under the same terms, with “GlyLeuAsnAspGly (GLNDG; printed: GlyLeuAsnAspGly)” the figure was 32.1 days; with “GlyMetAsnAlaGly (GMNAG; printed: GlyMetAsnAlaGly)”, 22.1 days.
Regarding “GlyPheAsnSerGly (GFNSG; printed: GlyPheAsnSerGly)”, the “First-Order Deamidation Halftimes of GlyXxxAsnYyyGly” value worked out at 18.1 days.

Staying with this series, now noted: pH 7.4, 37.0 ° C., 0.15 M Tris HCl; Gln pentapeptides; 52 values measured, rest derived from surface fitting.
Consider “GlyTrpGlnLeuGly (GWQLG; printed: GlyTrpGlnLeuGly)”, for which the “First-Order Deamidation Halftimes of GlyXxxGlnYyyGly” value worked out at 7900 days.
For “GlyTyrGlnMetGly (GYQMG; printed: GlyTyrGlnMetGly)”, the “First-Order Deamidation Halftimes of GlyXxxGlnYyyGly” value was found to be 5300 days.
Same read-out and setting: the value for “GlyValGlnHisGly (GVQHG; printed: GlyValGlnHisGly)” was 5000 days; that for “GlyHisGlnSerGly (GHQSG; printed: GlyHisGlnSerGly)” was 6300 days; that for “GlyProGlnGlyGly (GPQGG; printed: GlyProGlnGlyGly)” was 630 days.
Still for that read-out and setting: with “GlyMetGlnHisGly (GMQHG; printed: GlyMetGlnHisGly)” the figure was 4400 days; with “GlyAspGlnValGly (GDQVG; printed: GlyAspGlnValGly)”, 6600 days.
Still for that read-out and setting: the value for “GlyLysGlnAspGly (GKQDG; printed: GlyLysGlnAspGly)” was 5900 days.
For “GlyThrGlnIleGly (GTQIG; printed: GlyThrGlnIleGly)”, the “First-Order Deamidation Halftimes of GlyXxxGlnYyyGly” value came to 5300 days.
Still for that read-out and setting: the value for “GlyProGlnProGly (GPQPG; printed: GlyProGlnProGly)” was 8900 days.
On the same count and under the same terms, the value for “GlyArgGlnCysGly (GRQCG; printed: GlyArgGlnCysGly)” was 1000 days; that for “GlyCysGlnAspGly (GCQDG; printed: GlyCysGlnAspGly)” was 6100 days.
The same measure, in the same setting: the value for “GlyThrGlnThrGly (GTQTG; printed: GlyThrGlnThrGly)” was 4000 days; that for “GlyAlaGlnArgGly (GAQRG; printed: GlyAlaGlnArgGly)” was 7200 days; that for “GlyValGlnGlyGly (GVQGG; printed: GlyValGlnGlyGly)” was 640 days.
For “GlyValGlnArgGly (GVQRG; printed: GlyValGlnArgGly)”, the “First-Order Deamidation Halftimes of GlyXxxGlnYyyGly” value is on record as 6100 days.
On the same count and under the same terms, the value for “GlySerGlnAspGly (GSQDG; printed: GlySerGlnAspGly)” was 8200 days; that for “GlyLysGlnGluGly (GKQEG; printed: GlyLysGlnGluGly)” was 5400 days; that for “GlyLeuGlnTrpGly (GLQWG; printed: GlyLeuGlnTrpGly)” was 16000 days.
Still for that read-out and setting: the value for “GlyAspGlnAspGly (GDQDG; printed: GlyAspGlnAspGly)” was 8400 days; that for “GlyMetGlnTyrGly (GMQYG; printed: GlyMetGlnTyrGly)” was 8200 days; that for “GlyHisGlnHisGly (GHQHG; printed: GlyHisGlnHisGly)” was 7200 days.
The same measure, in the same setting: the value for “GlyValGlnPheGly (GVQFG; printed: GlyValGlnPheGly)” was 7200 days; that for “GlyIleGlnIleGly (GIQIG; printed: GlyIleGlnIleGly)” was 6500 days; that for “GlyLysGlnIleGly (GKQIG; printed: GlyLysGlnIleGly)” was 5400 days.
For “GlyTrpGlnGlyGly (GWQGG; printed: GlyTrpGlnGlyGly)”, the “First-Order Deamidation Halftimes of GlyXxxGlnYyyGly” value is given as 850 days.
The same measure, in the same setting: the value for “GlyPheGlnThrGly (GFQTG; printed: GlyPheGlnThrGly)” was 5300 days; that for “GlyValGlnSerGly (GVQSG; printed: GlyValGlnSerGly)” was 4400 days.
For the substance “GlyLysGlnHisGly (GKQHG; printed: GlyLysGlnHisGly)”, the “First-Order Deamidation Halftimes of GlyXxxGlnYyyGly” value turned out to be 6100 days.

(Values after patent publication US20050118674A1, “Engineering of Controlled Deamidation Rates in Peptides, Proteins, and Similar Structures” (priority 2003, published 2005).)
